Laboratory results published in US20060110789A1, “Methods to mediate polyketide synthase module effectiveness” (priority 2002, published 2006).
One block for each substance: values may come before it.

How the values were obtained:
[1] = biological target: M3+TE (module 3 of DEBS with its own N-terminal linker, fused to thioesterase) (UniProt Q03132); test: estimated from the saturation curve of the rate of tetraketide formation against M3+TE concentration at fixed M2 (kinetic, in solution)
[2] = biological target: (5)M3+TE (module 3 of DEBS with the N-terminal linker of module 5, fused to thioesterase) (UniProt Q03132); test: estimated from the saturation curve of the rate of tetraketide formation against (5)M3+TE concentration at fixed 0.5 µM M2(4) (kinetic, in solution)
[3] = biological target: (5)M5+TE (module 5 of DEBS with its own N-terminal linker, fused to thioesterase) (UniProt Q03133); test: cell-based or functional assay
[4] = biological target: (3)M5+TE (module 5 of DEBS with the N-terminal linker of module 3, fused to thioesterase) (UniProt Q03133); test: cell-based or functional assay
[5] = biological target: (5)M6+TE (module 6 of DEBS with the N-terminal linker of module 5, with thioesterase) (UniProt Q03133); test: cell-based or functional assay
[6] = biological target: (5)M2+TE (module 2 of DEBS with the N-terminal linker of module 5, fused to thioesterase) (UniProt Q03131); test: cell-based or functional assay

Kd [1]: 1100 nM
Substance: M2 (module 2 of DEBS with its natural C-terminal linker) (from UniProt Q03131 1982-3404; Q03131 3408-3491) (enzyme)

Kd [2]: 2100 nM
Substance: M2(4) (module 2 of DEBS with the C-terminal linker of module 4) (from UniProt Q03131 1982-3404; Q03132 3489-3567) (enzyme)

k60 µM, fold decrease against the matched reaction (FIG. 28 C) [3]: 20 fold
Substance: diketide-ACP2(4) (DEBS ACP2 with the C-terminal linker of module 4, loaded with diketide) (from UniProt Q03131 3320-3408; Q03132 3489-3567)

k60 µM, fold decrease against the matched reaction (FIG. 28 B) [4]: 20 fold | maximal rate of elongation of 4a, fold increase against the NAC thioester 2a [3]: > 40 fold
Substance: diketide-ACP4(4) (DEBS ACP4 with its natural C-terminal linker, loaded with diketide) (from UniProt Q03132 3398-3567)

k60 µM, fold decrease against diketide-ACP4(4) with the same module [5]: 10 fold | k60 µM (FIG. 29 B) [4]: 0.27 min⁻¹ | k60 µM (FIG. 29 A) [3]: 0.49 min⁻¹ | k60 µM, fold decrease against diketide-ACP4(4) with the same module [6]: 10 fold
Substance: diketide-ACP4(Ø) (DEBS ACP4 without linker, loaded with diketide) (from UniProt Q03132 3398-3488)

k60 µM [5]: 0.53 min⁻¹
Substance: diketide-NovH(4) (NovH fused to the C-terminal linker of DEBS module 4, loaded with diketide) (from UniProt Q03132 3489-3567)
